Laboratory results: paper PMC7729563, “Phospho-Mutant Activity Assays Provide Evidence for the Negative Regulation of Transcriptional Regulator PRE1 by Phosphorylation” (International Journal of Molecular Sciences, 2020)

Columns and labels:
GST-IBH1 = molecular target: T1, GST-IBH1 (Arabidopsis thaliana, UniProt Q9SKX1 1-156); assay: pull-down; 1 μg GST-IBH1 on glutathione beads with 1 μg MBP fusion; 20 mM Tris-HCl pH 7.5, 100 mM NaCl, 1 mM EDTA; washes with 300 mM NaCl, 0.5% Triton X-100; anti-MBP immunoblot; conditions: both partners purified
T1 construct: also called glutathione S-transferase (GST)-IBH1; source: bacteria, purified on glutathione beads; not shown: GST, N-terminal, kept
T1 sequence (looked up): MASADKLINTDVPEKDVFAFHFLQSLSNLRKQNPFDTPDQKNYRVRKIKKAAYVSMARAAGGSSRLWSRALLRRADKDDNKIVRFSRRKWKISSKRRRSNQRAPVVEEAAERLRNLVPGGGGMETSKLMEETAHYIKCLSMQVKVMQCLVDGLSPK

[1] = molecular target: T2, GST-BIN2 (BR-… 2, GSK3-like kinase) (Arabidopsis thaliana, UniProt Q39011 1-380); assay: far-Western, overlay or dot blot; overlay assay in vitro (Figure S5A); format not told; conditions: both partners purified
T2 construct: GST-BIN2 is the only recombinant wild-type BIN2 described (methods 4.11); also called brassinosteroid-insensitive 2; source: E. coli, purified
T2 sequence (looked up): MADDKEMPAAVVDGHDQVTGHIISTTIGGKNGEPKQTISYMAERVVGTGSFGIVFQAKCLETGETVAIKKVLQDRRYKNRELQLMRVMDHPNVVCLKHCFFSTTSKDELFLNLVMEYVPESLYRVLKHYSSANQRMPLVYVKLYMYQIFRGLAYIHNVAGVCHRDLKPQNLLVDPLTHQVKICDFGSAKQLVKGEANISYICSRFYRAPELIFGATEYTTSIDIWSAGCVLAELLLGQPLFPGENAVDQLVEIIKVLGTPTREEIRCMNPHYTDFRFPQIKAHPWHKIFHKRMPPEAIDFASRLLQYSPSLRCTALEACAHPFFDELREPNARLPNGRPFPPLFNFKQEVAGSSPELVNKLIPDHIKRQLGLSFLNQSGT

| Binder | binding result (GST-IBH1) | binding result [1] |
| --- | --- | --- |
| MBP-PRE1 (natural protein, Arabidopsis thaliana, UniProt Q9FLE9 1-92, looked up, MBP-PRE1 is the only recombinant PRE1 described; source: E. coli, purified on amylose resin beads; not shown: MBP, N-terminal, kept) MSNRRSRQSSSAPRISDNQMIDLVSKLRQILPEIGQRRRSDKASASKVLQETCNYIRNLNREVDNLSERLSQLLESVDEDSPEAAVIRSLLM | binds | binds |
| MBP-PRE1^S67A (natural protein, Arabidopsis thaliana, UniProt Q9FLE9 1-92, looked up, source: E. coli, purified on amylose resin beads; not shown: MBP, N-terminal, kept) MSNRRSRQSSSAPRISDNQMIDLVSKLRQILPEIGQRRRSDKASASKVLQETCNYIRNLNREVDNLAERLSQLLESVDEDSPEAAVIRSLLM | binds | – |
